In patent publication US20120135923A1 (IPSEN PHARMA S A S, published 2012) one finds Ki data, which are given here for 22 molecules.

Bridge positions count the residues as written; N and C are the ends. Square brackets hold non-standard residues; d marks the D form. Ends that are not written are not given here. 2Nal = N[C@@H](Cc1ccc2ccccc2c1)C(=O)O; d2Nal = N[C@H](Cc1ccc2ccccc2c1)C(=O)O; Bta = N[C@@H](Cc1csc2ccccc12)C(=O)O; hPhe = N[C@@H](CCc1ccccc1)C(=O)O; Cha = N[C@@H](CC1CCCCC1)C(=O)O; dCha = N[C@H](CC1CCCCC1)C(=O)O; Pen = CC(C)(S)[C@H](N)C(=O)O; Nle = CCCC[C@H](N)C(=O)O; Ava = NCCCCC(=O)O; GABA = NCCCC(=O)O; βAla = NCCC(=O)O

The target in one assay is T1, hMC1-R (human, UniProt Q01726 1-317).
T1 construct: whole, on cells; Assayed as membranes of CHO-K1 cells expressing the receptor; also called hMC-R receptor subtype 1; melanocyte-specific receptor (MC1-R)
Briefly: competition with [125I]-NDP-α-MSH, CHO-K1 membranes. How it is done:
(§1) Cellular membranes used for the in vitro receptor binding assays were obtained from transgenic CHO-K1 cells stably expressing hMC-R receptor subtypes 1, 3, 4 or 5. […] The pellets were resuspended in the same buffer and centrifuged at 50,000 g for 10 minutes at approximately 4° C. The washed pellets containing the cellular membranes were stored at approximately −80° C.
(§2) Competitive inhibition of [¹²⁵I](Tyr²)-(Nle⁴-D-Phe⁷)α-MSH ([¹²⁵I]-NDP-α-MSH, Amersham Biosciences®) binding was carried out in polypropylene 96 well plates. Cell membranes (1-10 μg protein/well) prepared as described above were incubated in 50 mM Tris-HCl at pH 7.4 containing 0.2% bovine serum albumin (BSA), 5 mM MgCl₂, 1 mM CaCl₂ and 0.1 mg/mL bacitracin, with increasing concentrations of the test compound and 0.1-0.3 nM […] for approximately 90-120 minutes at approximately 37° C. Bound [¹²⁵I]-NDP-α-MSH ligand was separated from free [¹²⁵I]-NDP-α-MSH by filtration through GF/C glass fiber filter plates (Unifilter®; Packard) presoaked with 0.1% (w/v) polyethylenimine (PEI), using a Packard Filtermate® harvester. Filters were washed three times with 50 mM Tris-HCl at pH 7.4 at a temperature of approximately 0-4° C. and then assayed for radioactivity using a Packard Topcount® scintillation counter. Binding data were analyzed by computer-assisted non-linear regression analysis (XL fit; IDBS).

The next assay addresses T2, hMC4-R (human, UniProt P32245 1-332).
T2 construct: whole, on cells; Assayed as membranes of CHO-K1 cells expressing the receptor; also called hMC-R receptor subtype 4; melanocortin-4 (MC4-R)
The assay is described as above. Here is the method:
as §1, §2

The target in the next assay is T3, hMC5-R (human, UniProt P33032 1-325).
T3 construct: whole, on cells; Assayed as membranes of CHO-K1 cells expressing the receptor; also called hMC-R receptor subtype 5; melanocortin-5 receptor (MC5-R)
Described as above. How it is done:
as §1, §2

The target of a further assay is T4, hMC3-R (human, UniProt P41968 1-323).
T4 construct: whole, on cells; Assayed as membranes of CHO-K1 cells expressing the receptor; also called hMC-R receptor subtype 3; melacortin-3 (MC3-R)
The assay is described as above. Here is the method: as §1, §2

Assay [1] has as its target T5, human melanocortin receptor subtype 1 (hMC1-R) (human, UniProt Q01726 1-317).
T5 construct: whole, on cells; membranes of CHO-K1 cells
The assay is described as follows: [125I]-NDP-α-MSH competition, membranes. How it is done: as §1, §2

Assay [2] concerns the target T6, human melanocortin receptor subtype 5 (hMC5-R) (human, UniProt P33032 1-325).
T6 construct: whole, on cells; membranes of CHO-K1 cells
The assay is described as follows: [125I]-NDP-α-MSH competition, membranes. Here is the method:
as §1, §2

Assay [3] has as its target T7, human melanocortin receptor subtype 4 (hMC4-R) (human, UniProt P32245 1-332).
T7 construct: whole, on cells; membranes of CHO-K1 cells
Briefly: [125I]-NDP-α-MSH competition, membranes. How it is done:
as §1, §2

T6 sequence (P33032 whole entry): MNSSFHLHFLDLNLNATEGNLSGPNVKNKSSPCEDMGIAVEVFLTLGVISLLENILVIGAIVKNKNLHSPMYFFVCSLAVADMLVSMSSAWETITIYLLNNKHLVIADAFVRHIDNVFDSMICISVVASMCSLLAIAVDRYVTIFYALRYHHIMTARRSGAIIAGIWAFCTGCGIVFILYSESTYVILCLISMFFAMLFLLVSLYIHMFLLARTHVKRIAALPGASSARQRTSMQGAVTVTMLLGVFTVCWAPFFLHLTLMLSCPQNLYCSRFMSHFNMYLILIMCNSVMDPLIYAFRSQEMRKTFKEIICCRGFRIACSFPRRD
T3 sequence (P33032 whole entry): as above
T4 sequence (P41968 whole entry): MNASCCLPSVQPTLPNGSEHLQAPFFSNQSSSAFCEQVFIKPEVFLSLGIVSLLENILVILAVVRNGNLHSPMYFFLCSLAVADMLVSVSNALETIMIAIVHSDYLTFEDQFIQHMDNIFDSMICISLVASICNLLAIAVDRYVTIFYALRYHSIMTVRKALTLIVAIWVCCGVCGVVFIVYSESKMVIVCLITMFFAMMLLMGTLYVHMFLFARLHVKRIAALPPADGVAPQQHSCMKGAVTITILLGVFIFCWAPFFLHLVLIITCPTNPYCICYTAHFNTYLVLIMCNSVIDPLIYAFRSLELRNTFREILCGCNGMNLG
T7 sequence (P32245 whole entry): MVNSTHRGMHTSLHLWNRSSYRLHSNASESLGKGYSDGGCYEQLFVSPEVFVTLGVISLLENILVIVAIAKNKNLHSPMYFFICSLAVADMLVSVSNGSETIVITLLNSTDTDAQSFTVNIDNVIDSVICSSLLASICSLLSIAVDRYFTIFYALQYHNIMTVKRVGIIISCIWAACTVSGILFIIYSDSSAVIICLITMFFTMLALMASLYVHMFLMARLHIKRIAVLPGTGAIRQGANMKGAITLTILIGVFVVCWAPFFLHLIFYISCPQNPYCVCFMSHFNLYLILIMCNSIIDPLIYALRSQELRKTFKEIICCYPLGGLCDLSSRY
T2 sequence (P32245 whole entry): as above
T5 sequence (Q01726 whole entry): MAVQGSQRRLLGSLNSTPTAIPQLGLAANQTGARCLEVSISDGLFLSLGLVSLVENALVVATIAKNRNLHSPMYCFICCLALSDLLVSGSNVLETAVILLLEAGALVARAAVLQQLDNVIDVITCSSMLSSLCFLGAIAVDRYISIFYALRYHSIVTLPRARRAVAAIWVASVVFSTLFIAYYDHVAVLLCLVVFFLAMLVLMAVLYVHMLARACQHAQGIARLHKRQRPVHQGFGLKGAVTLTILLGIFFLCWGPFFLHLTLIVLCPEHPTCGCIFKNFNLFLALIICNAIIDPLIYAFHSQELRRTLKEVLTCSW
T1 sequence (Q01726 whole entry): as above

Take Ac-[Nle]D[dA]H[dF]R[Bta]AK-NH2 (lactam 2-9) [Ac-Nle-c(Asp-D-Ala-His-D-Phe-Arg-Bal-Ala-Lys)-NH2]: the inhibition constant (Ki) with hMC1-R was found to be 4.89 nM; in the assay with hMC4-R, 21.3 nM; in the assay with hMC5-R, 11.1 nM.
For Ac-[hPhe]DH[dF]RW[GABA]K-NH2 (lactam 2-8) [Ac-hPhe-c(Asp-His-D-Phe-Arg-Trp-Gaba-Lys)-NH2], the values for the inhibition constant (Ki) with hMC3-R, with hMC4-R and with hMC5-R were 25.2 nM, 3.37 nM and 203 nM, respectively.
In the case of Ac-[Nle]C[dI]H[dF]RWC-NH2 (disulfide 2-8) [Ac-Nle-c(Cys-D-Ile-His-D-Phe-Arg-Trp-Cys)-NH2], the results for the Ki with hMC1-R, in the assay with hMC4-R and with hMC5-R were 4.28 nM, 9 nM and 12.5 nM, respectively.
For Ac-[Nle]C[dV]H[dF]RWC-NH2 (disulfide 2-8) [Ac-Nle-c(Cys-D-Val-His-D-Phe-Arg-Trp-Cys)-NH2], the Ki in the assay with hMC1-R came to 13 nM; with hMC3-R, 104 nM; with hMC5-R it was 40 nM.

B1: Ac-Nle-c(Cys-D-Ala-His-D-Phe-Arg-Trp-Gly-Cys)-NH2 (peptide)
peptide: Ac-[Nle]C[dA]H[dF]RWGC-NH2
modifications: disulfide 2-9
SMILES: CCCC[C@H](NC(C)=O)C(=O)N[C@H]1CSSC[C@@H](C(N)=O)NC(=O)CNC(=O)[C@H](Cc2c[nH]c3ccccc23)NC(=O)[C@H](CCCNC(=N)N)NC(=O)[C@@H](Cc2ccccc2)NC(=O)[C@H](Cc2c[nH]cn2)NC(=O)[C@@H](C)NC1=O
As to B1, the Ki with hMC3-R worked out at 149 nM; with hMC4-R, 3.01 nM; with hMC5-R it was 339 nM.
As to Ac-CEH[dF]R[2Nal]AC-NH2 (disulfide 1-8) [Ac-c(Cys-Glu-His-D-Phe-Arg-2-Nal-Ala-Cys)-NH2], the Ki came out at 262 nM with hMC1-R, 96.4 nM in the assay with hMC4-R and 1460 nM with hMC5-R.
For the molecule Ac-[Nle]DH[d2Nal]RWAK-NH2 (lactam 2-8) [Ac-Nle-c(Asp-His-D-2-Nal-Arg-Trp-Ala-Lys)-NH2], the Ki in the assay with hMC1-R is 1.17 nM.
In the case of Ac-[Nle]DH[dF]RW[Ava]K-NH2 (lactam 2-8) [Ac-Nle-c(Asp-His-D-Phe-Arg-Trp-Apn-Lys)-NH2], the Ki in the assay with hMC1-R was determined as 0.999 nM; in the assay with hMC3-R it was 300 nM; with hMC4-R it was 11.1 nM; with hMC5-R, 431 nM.

B2: Hydantoin(C(O)-(Nle-Gly))-c(Cys-Glu-His-D-Phe-Arg-Trp-Cys)-NH2 (peptide)
peptide: [Nle]GCEH[dF]RWC-NH2
modifications: disulfide 3-9; also: N-terminal hydantoin: C(O) bridges X1 N-terminal N and G2 backbone N, bridge at N via C(O), other end not in the chain
For the molecule B2, the Ki in assay [1] was 14.3 nM; in assay [2] it was 67.8 nM.

B3: Ac-c(Cys-Glu-His-D-2-Nal-Arg-2-Nal-Ala-Cys)-Pro-Pro-Arg-Asp-β-[…]NH2 (peptide)
peptide: Ac-CEH[d2Nal]R[2Nal]ACPPRD[βAla]RRRRRQRRR-NH2
modifications: disulfide 1-8
SMILES: CC(=O)N[C@H]1CSSC[C@@H](C(=O)N2CCC[C@H]2C(=O)N2CCC[C@H]2C(=O)N[C@@H](CCCNC(=N)N)C(=O)N[C@@H](CC(=O)O)C(=O)NCCC(=O)N[C@@H](CCCNC(=N)N)C(=O)N[C@@H](CCCNC(=N)N)C(=O)N[C@@H](CCCNC(=N)N)C(=O)N[C@@H](CCCNC(=N)N)C(=O)N[C@@H](CCCNC(=N)N)C(=O)N[C@@H](CCC(N)=O)C(=O)N[C@@H](CCCNC(=N)N)C(=O)N[C@@H](CCCNC(=N)N)C(=O)N[C@@H](CCCNC(=N)N)C(N)=O)NC(=O)[C@H](C)NC(=O)[C@H](Cc2ccc3ccccc3c2)NC(=O)[C@H](CCCNC(=N)N)NC(=O)[C@@H](Cc2ccc3ccccc3c2)NC(=O)[C@H](Cc2c[nH]cn2)NC(=O)[C@H](CCC(=O)O)NC1=O
On to B3, for which the Ki in assay [1] amounted to 2.63 nM; in assay [3] it was 0.0737 nM; in assay [2], 11.6 nM.
The matching figures for Ac-CEH[d2Nal]R[Bta]ACPPKD[βAla]RRKRRQRRR-NH2 (disulfide 1-8) [Ac-c(Cys-Glu-His-D-2-Nal-Arg-Bal-Ala-Cys)-Pro-Pro-Lys-Asp-β-[…]NH2]: 3 nM, 0.442 nM and 15.5 nM.
For the molecule RGCEH[dF]RWC-NH2 (disulfide 3-9; also: hydantoin ring from C(O) with Arg1-Gly2) [Hydantoin(C(O)-(Arg-Gly))-c(Cys-Glu-His-D-Phe-Arg-Trp-Cys)-NH2], the Ki in assay [1] stood at 8.59 nM; in assay [3] it was 2.44 nM; in assay [2] it was 7760 nM.
Taken in the same sequence, the figures for GRCEH[dF]RWC-NH2 (disulfide 3-9; also: hydantoin ring from C(O) with Gly1-Arg2) [Hydantoin(C(O)-(Gly-Arg))-c(Cys-Glu-His-D-Phe-Arg-Trp-Cys)-NH2] were 5.68 nM, 2.44 nM and 4220 nM.
Regarding GGCEH[dF]RWC-NH2 (disulfide 3-9; also: hydantoin ring from C(O) with Gly1-Gly2) [Hydantoin(C(O)-(Gly-Gly))-c(Cys-Glu-His-D-Phe-Arg-Trp-Cys)-NH2], the values for the Ki in assay [1] and in assay [2] were 11.9 nM and 73.9 nM, respectively.

B4: c[Hydantoin(C(O)-(Asp-His))-D-2-Nal-Arg-Trp-Lys]-NH2 (peptide)
peptide: DH[d2Nal]RWK-NH2
modifications: lactam 1-6; also: hydantoin ring: N-terminal N of Asp1 and backbone N of His2 bridged by one C(O), bridge at N via C(O), other end not in the chain
As to B4, in assay [1], the affinity corresponds to a Ki of 200 nM.
On to Ac-CEH[d2Nal]R[2Nal]ACPPKD[βAla]GRKRRRQRRR-NH2 (disulfide 1-8), for which the Ki in assay [1] is 5.66 nM; in assay [3] it was 0.446 nM; in assay [2], 6.23 nM.
On to Ac-[dR]DH[dF]RWAK-NH2 (lactam 2-8) [Ac-D-Arg-c(Asp-His-D-Phe-Arg-Trp-Ala-Lys)-NH2], for which the Ki turned out to be 0.79 nM in the assay with hMC1-R, 45.5 nM with hMC3-R and 493 nM with hMC5-R.

B5: Hydantoin(C(O)-(Arg-Gly))-c(Cys-D-Ala-His-D-2-Nal-Arg-Trp-Cys)-NH2 (peptide)
peptide: RGC[dA]H[d2Nal]RWC-NH2
modifications: disulfide 3-9; also: N-terminal hydantoin: C(O) bridges Arg1 N-alpha and Gly2 N, bridge at N via C(O), other end not in the chain
With B5, the Ki in assay [1] is 11.9 nM; in assay [3] it was 0.195 nM.

B6: Hydantoin(C(O)-(Nle-Gly))-c(Cys-D-Ala-His-D-Phe-Arg-Trp-Pen)-NH2 (peptide)
peptide: [Nle]GC[dA]H[dF]RW[Pen]-NH2
modifications: disulfide 3-9; also: N-terminal hydantoin: C(O) bridges X1 N-terminal N and G2 backbone N, bridge at N via C(O), other end not in the chain
On to B6, for which the Ki was 12.9 nM in assay [1], 3.53 nM in assay [3] and 27.1 nM in assay [2].

B7: Ac-Cha-c(Asp-His-D-Phe-Arg-Trp-Gaba-Lys)-NH2 (peptide)
peptide: Ac-[Cha]DH[dF]RW[GABA]K-NH2
modifications: lactam 2-8
SMILES: CC(=O)N[C@@H](CC1CCCCC1)C(=O)N[C@H]1CC(=O)NCCCC[C@@H](C(N)=O)NC(=O)CCCNC(=O)[C@H](Cc2c[nH]c3ccccc23)NC(=O)[C@H](CCCNC(=N)N)NC(=O)[C@@H](Cc2ccccc2)NC(=O)[C@H](Cc2c[nH]cn2)NC1=O
Regarding B7, the inhibition constant (Ki) with hMC1-R was 0.106 nM; in the assay with hMC3-R it was 11.8 nM; with hMC4-R, 1.49 nM; in the assay with hMC5-R it was 110 nM.
On to Ac-CEH[d2Nal]R[2Nal]ACPPKD[βAla]RRRRRQRRR-NH2 (disulfide 1-8), for which the Ki in assay [1] came to 2.48 nM; in assay [2] it was 9.17 nM.

B8: Ac-Nle-c(Cys-D-Cha-His-D-Phe-Arg-Trp-Cys)-NH2 (peptide)
peptide: Ac-[Nle]C[dCha]H[dF]RWC-NH2
modifications: disulfide 2-8
SMILES: CCCC[C@H](NC(C)=O)C(=O)N[C@H]1CSSC[C@@H](C(N)=O)NC(=O)[C@H](Cc2c[nH]c3ccccc23)NC(=O)[C@H](CCCNC(=N)N)NC(=O)[C@@H](Cc2ccccc2)NC(=O)[C@H](Cc2c[nH]cn2)NC(=O)[C@@H](CC2CCCCC2)NC1=O
As to B8, the inhibition constant Ki is 0.353 nM with hMC1-R, 2.08 nM with hMC3-R and 1.41 nM in the assay with hMC4-R.

Usually Ki stands for the dissociation constant of the complex between target and ligand, obtained from inhibition or displacement.
